In patent publication US20160053248A1, “SYSTEMS AND METHODS FOR EVOLVING ENZYMES WITH DESIRED ACTIVITIES” (Potomac Affinity Proteins, LLC, priority 2009, published 2016):
Primed or numbered codes have the meaning given here. No end group written: not given here. *: point of attachment. Dabcyl′ = CN(C)c1ccc(/N=N/c2ccc(C(=O)*)cc2)cc1

Experiments:
[1] = molecular target: SBT189-Dabcyl conjugate (Bacillus amyloliquefaciens (Bacillus velezensis)) (UniProt P00782); assay: single turn-over kinetics, quenching of GFP fluorescence by Dabcyl; 0.1M KPO4, pH 7.2, 5 mM azide, 22° C
GA-PFRAL-S-GB [2] = test system: GA-PFRAL-S-GB
SBT189 [3] = settings: read-out: apparent KD for azide; anion binding to the enzyme-substrate complex
From the text: The acylation reaction: Step 2 describes conversion of the ternary complex into an acyl-enzyme with the concomitant release to the C-terminal portion of the substrate. With substrates used in phage display, the GB domain is released concomitantly with the acylation step. If a fluorescent reporter group is attached to subtilisin, a decrease in energy transfer enables time-dependent quantitation of acylation.

SBT189 [4] = assay: Transient state kinetics with FRET peptide: product release and product binding; design: species or system Bacillus amyloliquefaciens; settings: not influenced by azide concentration
Protocol: The deacylation reaction and product release: A self-quenched FRET peptide that becomes highly fluorescent when cleaved (Dabcyl-EEDKLFRAL-SATE(EDANS)G (SEQ ID NO:16)) was synthesized. This peptide has been used to determine transient state kinetic parameters. Deacylation of SBT189 in 50 mM azide is faster (3.3 s^−1) than the wild type counterpart (1.8 s^−1). The rate of product (Dabcyl-EEDKLFRAL; (SEQ ID NO:17)) release is 6 s^−1 and Kp is 1.2 μM. Product binding is not influenced by azide concentration. Strong product binding of subtilisin-phage to GA-PCOGNATE- is used for the collection of active mutants in the release step in phage selection (see FIG. 5). Binding is constitutive at this step, however, and is not used to increase selectivity.

SBT189 [5] = assay: Activation cascade: release of free SBT189 from prodomain inhibitor complexes; assay type: biochemical, Bacillus amyloliquefaciens
Protocol: (§1) To do this complexes of SBT189 were formed with two different prodomain inhibitors. The first complex contained 100 μM of SBT189 and prodomain variant pS156, and the second complex contained 100 μM SBT189 and prodomain variant pS170. To start the activation cascade, 10 nM wild type subtilisin was added to each complex. Wild type subtilisin is able to cleave both the loop sequence MSTM (SEQ ID NO:23) in pS156 and the loop sequence YKTM (SEQ ID NO:22) in pS170. After 5 minutes of digestion, the wild type subtilisin was inactivated by the addition of EDTA to 1 mM and heating to 55° C. for 10 minutes. Azide was then added to the reactions to 10 mM and the activity of free SBT189 subtilisin was then measured as a function of time. The release of free SBT189 from the pS156 complex occurs at a rate of about 1 days^−1. This is because the cleavage of the loop sequence MSTM (SEQ ID NO:23) by SBT189 is very slow. In contrast, the complete activation of SBT189 from the pS170 complex occurs within 10 minutes. Because SBT189 can readily cleave the loop sequence YKTL (SEQ ID NO:24), SBT189 is rapidly released after the self-activating chain reaction is initiated by wild type subtilisin. Thus the protease signal from the pS170 complex increases about 10^4-fold in 10 minutes (from 10 nM to 100 μM).

[6] = molecular target: T1, subtilisin variant SBT189 (Bacillus amyloliquefaciens (Bacillus …, UniProt P00782 108-382)); assay: complex formed at 100 µM for the activation cascade
T1 construct: Engineered subtilisin BPN' variant with D32A; also called S189; RSUB1
T1 chain: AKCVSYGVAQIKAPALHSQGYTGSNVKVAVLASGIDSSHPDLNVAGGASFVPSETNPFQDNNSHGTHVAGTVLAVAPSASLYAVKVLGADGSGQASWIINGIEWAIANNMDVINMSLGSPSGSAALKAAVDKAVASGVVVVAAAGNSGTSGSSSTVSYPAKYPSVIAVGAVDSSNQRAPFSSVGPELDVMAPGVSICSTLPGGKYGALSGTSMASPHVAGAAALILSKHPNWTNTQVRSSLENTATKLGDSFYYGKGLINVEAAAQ
Protocol: as §1, with “days⁻¹.” for “days^−1.”, “10⁴-fold” for “10^4-fold”

prodomain variant pS156 = molecular target: T2, prodomain variant pS156
T2 chain: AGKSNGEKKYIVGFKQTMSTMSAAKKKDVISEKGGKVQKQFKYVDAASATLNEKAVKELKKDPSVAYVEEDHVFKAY

prodomain variant pS170 = molecular target: T3, prodomain variant pS170
T3 chain: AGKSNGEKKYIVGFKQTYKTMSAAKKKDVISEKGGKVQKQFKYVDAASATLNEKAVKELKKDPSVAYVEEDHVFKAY

[7] = molecular target: GB-GFP fusion protein with cognate variation LFQSL-SA, P06654
[8] = molecular target: GB-GFP fusion protein with cognate variation LFRAL-MA, P06654
[9] = molecular target: GB-GFP fusion protein with cognate variation LFRAM-SA, P06654
[10] = molecular target: GB-GFP fusion protein with cognate variation LFRAY-SA, P06654
[11] = molecular target: GB-GFP fusion protein with cognate variation LLRAL-SA, P06654
[12] = molecular target: GB-GFP fusion protein with cognate variation LYRAL-SA, P06654
[13] = molecular target: GB-GFP fusion protein with cognate variation VFKAM-SG, P06654
GA-PFRAL-S-GB [14] = molecular target: GA-PFRAL-S-GB; remark: listed apart in the source
[15] = molecular target: T1, subtilisin variant SBT189; assay: transient state kinetics with the FRET peptide
[16] = 100 μM complex, started with 10 nM wild type subtilisin, 10 mM azide

## GB-LFRAL-SA-GFP (from UniProt P06654 228-282)
[1]
  KS: 16 µM

## GB-GFP fusion protein with cognate variation LFRAY-SA (from UniProt P06654 228-282)
[1]
  KS: 1900 µM

## subtilisin synthesized as a fusion protein on the surface of M13 phage
GA-PFRAL-S-GB [2]
  enrichment of phagemid relative to helper phage after one round of catch and release selection: 350 fold enrichment

## GB-GFP fusion protein with cognate variation LFRAL-MA (from UniProt P06654 228-282)
[1]
  KS: 24 µM

## [N-]=[N+]=[N-] [azide]
SBT189 [3]
  Kd: 50 mM

## GB-GFP fusion protein with cognate variation LFQSL-SA (from UniProt P06654 228-282)
[1]
  KS: 66 µM

## GB-GFP fusion protein with cognate variation LYRAL-SA (from UniProt P06654 228-282)
[1]
  KS: 88 µM

## GB-GFP fusion protein with cognate variation VFKAM-SG (from UniProt P06654 228-282)
[1]
  KS: 43 µM

## GB-GFP fusion protein with cognate variation LLRAL-SA (from UniProt P06654 228-282)
[1]
  KS: 670 µM

## GB-GFP fusion protein with cognate variation LFRAM-SA (from UniProt P06654 228-282)
[1]
  KS: 36 µM

## Dabcyl-EEDKLFRAL ({Dabcyl′}-EEDKLFRAL)
SBT189 [4]
  rate of product release: 6 s⁻¹

B1: prodomain variant pS170 (other)
chain: AGKSNGEKKYIVGFKQTYKTMSAAKKKDVISEKGGKVQKQFKYVDAASATLNEKAVKELKKDPSVAYVEEDHVFKAY
notes: M18Y, S19K, A74F, H75K against the prodomain; also called p5170
SBT189 [5]; [16]
  time to complete activation of SBT189 from the complex: ≤ 10 min
SBT189 [5]; in 10 minutes (from 10 nM to 100 μM)
  increase of protease signal: about 10^4 fold
[6]
  binding result: binds

B2: pS156 (protein)
chain: AGKSNGEKKYIVGFKQTMSTMSAAKKKDVISEKGGKVQKQFKYVDAASATLNEKAVKELKKDPSVAYVEEDHVFKAY
SBT189 [5]; [16]
  rate of release of free SBT189 from the complex: about 1 days^−1

B3: wild type subtilisin (protein)
chain: AQSVPYGVSQIKAPALHSQGYTGSNVKVAVIDSGIDSSHPDLKVAGGASMVPSETNPFQDNNSHGTHVAGTVAALNNSIGVLGVAPSASLYAVKVLGADGSGQYSWIINGIEWAIANNMDVINMSLGGPSGSAALKAAVDKAVASGVVVVAAAGNEGTSGSSSTVGYPGKYPSVIAVGAVDSSNQRASFSSVGPELDVMAPGVSIQSTLPGNKYGAYNGTSMASPHVAGAAALILSKHPNWTNTQVRSSLENTTTKLGDSFYYGKGLINVQAAAQ
Prodomain variant pS156
  cleavage of the prodomain loop: able to cleave
Prodomain variant pS170
  cleavage of the prodomain loop: able to cleave

B4: SBT189-Dabcyl conjugate (protein)
chain: AKCVSYGVAQIKAPALHSQGYTGSNVKVAVLASGIDSSHPDLNVAGGASFVPSETNPFQDNNSHGTHVAGTVLAVAPSASLYAVKVLGADGSGQASWIINGIEWAIANNMDVINMSLGSPSGSAALKAAVDKAVASGVVVVAAAGNSGTSGSSSTVSYPAKYPSVIAVGAVDSSNQRAPFSSVGPELDVMAPGVSICSTLPGGKYGALSGTSMASPHVAGAAALILSKHPNWTNTQVRSSLENTATKLGDSFYYGKGLINVEAAAQ
[7]
  Relative k2/KS: 0.04
  acylation rate (k2): 0.23 s⁻¹
[8]
  Relative k2/KS: 0.027
  acylation rate (k2): 0.06 s⁻¹
[9]
  Relative k2/KS: 0.32
  acylation rate (k2): 1 s⁻¹
[10]
  Relative k2/KS: 0.001
  acylation rate (k2): 0.17 s⁻¹
[11]
  Relative k2/KS: 0.01
  acylation rate (k2): 0.59 s⁻¹
[12]
  Relative k2/KS: 0.03
  acylation rate (k2): 0.23 s⁻¹
[13]
  Relative k2/KS: 0.004
  acylation rate (k2): 0.017 s⁻¹
GB-LFRAL-SA-GFP, P06654
  Relative k2/KS: 1
  activity against the cognate sequence, relative to VFKAM-SG: 250-times greater
  acylation rate (k2): 1.4 s⁻¹

B5: subtilisin variant SBT189 (protein)
chain: AKCVSYGVAQIKAPALHSQGYTGSNVKVAVLASGIDSSHPDLNVAGGASFVPSETNPFQDNNSHGTHVAGTVLAVAPSASLYAVKVLGADGSGQASWIINGIEWAIANNMDVINMSLGSPSGSAALKAAVDKAVASGVVVVAAAGNSGTSGSSSTVSYPAKYPSVIAVGAVDSSNQRAPFSSVGPELDVMAPGVSICSTLPGGKYGALSGTSMASPHVAGAAALILSKHPNWTNTQVRSSLENTATKLGDSFYYGKGLINVEAAAQ
GA-PFRAL-S-GB [14]
  cleavage rate in the absence of azide: 0.12 min⁻¹
GB-LFRAL-SA-GFP, P06654
  digestion of the fusion protein, protein gel and MALDI-MS: The fusion protein was correctly and specifically processed to release GB-LFRAL and SA-GFP
Prodomain variant pS156
  release of free SBT189 from the complex: about 1 days^-1
Prodomain variant pS170
  complete activation of SBT189 from the complex: occurs within 10 minutes
  increase of the protease signal from the complex: increases about 10^4-fold in 10 minutes (from 10 nM to 100 µM)

B6: RSUB1(AF350) (protein)
chain: AKCVSYGVAQIKAPALHSQGYTGSNVKVAVLASGIDSSHPDLNVAGGASFVPSETNPFQDNNSHGTHVAGTVLAVAPSASLYAVKVLGADGSGQASWIINGIEWAIANNMDVINMSLGSPSGSAALKAAVDKAVASGVVVVAAAGNSGTSGSSSTVSYPAKYPSVIAVGAVDSSNQRAPFSSVGPELDVMAPGVSICSTLPGGKYGALSGTSMASPHVAGAAALILSKHPNWTNTQVRSSLENTATKLGDSFYYGKGLINVEAAAQ
GA-PFRAL-S-GB [14]
  rate of GB release in saturating azide: 6.4 s⁻¹
  rate of GB release with no azide present: 0.0019 s⁻¹

B7: Dabcyl-EEDKLFRAL (peptide)
peptide: {Dabcyl′}-EEDKLFRAL
notes: Acyl-side cleavage product of the FRET peptide; also called product
[15]
  koff: 6 s⁻¹
